Experimental data: patent publication US20210388087A1 (Chugai, published 2021)

Molecular target: T1, Human CD137 ECD (human)
T1 construct: entry includes C-terminal His-tag and biotin acceptor peptide; also called human CD137 extracellular domain; 4-1BB
Experiment: Biacore SPR, vs parent H183/L072

T1 sequence (chain, as listed by the source limits assumed): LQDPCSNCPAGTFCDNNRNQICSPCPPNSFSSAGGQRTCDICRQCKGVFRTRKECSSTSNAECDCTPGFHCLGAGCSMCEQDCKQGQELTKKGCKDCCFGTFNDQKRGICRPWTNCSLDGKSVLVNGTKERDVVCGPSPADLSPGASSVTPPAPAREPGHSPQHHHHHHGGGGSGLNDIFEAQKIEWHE

Row | fold change of affinity [fold] | Binder
1 | 0 | H183/L072 VL Q90S (antibody, name in Kabat numbering, V domains shown, Dual-Ig) VH: QVQLVESGGGLVQPGRSLRLSCAASGFTFSNAWMHWVRQAPGKGLEWVAQIKDKGNAYAAYYAPSVKGRFTISRDDSKNSIYLQMNSLKTEDTAVYYCHYVHYASASTVLPAFGVDAWGQGTTVTVSS VL: DIVMTQSPLSLPVTPGEPASISCQASQELVHMNRNTYLHWYQQKPGQAPRLLIYKVSNRFPGVPDRFSGSGSGTDFTLKISRVEAEDVGVYYCASGTSVPFTFGQGTKLEIK
2 | 0.9 | H183/L072 VL R29S (antibody, name in Kabat numbering, V domains shown, Dual-Ig) VH: QVQLVESGGGLVQPGRSLRLSCAASGFTFSNAWMHWVRQAPGKGLEWVAQIKDKGNAYAAYYAPSVKGRFTISRDDSKNSIYLQMNSLKTEDTAVYYCHYVHYASASTVLPAFGVDAWGQGTTVTVSS VL: DIVMTQSPLSLPVTPGEPASISCQASQELVHMNSNTYLHWYQQKPGQAPRLLIYKVSNRFPGVPDRFSGSGSGTDFTLKISRVEAEDVGVYYCAQGTSVPFTFGQGTKLEIK
3 | 0.4 | H183/L072 VL R29E (antibody, name in Kabat numbering, V domains shown, Dual-Ig) VH: QVQLVESGGGLVQPGRSLRLSCAASGFTFSNAWMHWVRQAPGKGLEWVAQIKDKGNAYAAYYAPSVKGRFTISRDDSKNSIYLQMNSLKTEDTAVYYCHYVHYASASTVLPAFGVDAWGQGTTVTVSS VL: DIVMTQSPLSLPVTPGEPASISCQASQELVHMNENTYLHWYQQKPGQAPRLLIYKVSNRFPGVPDRFSGSGSGTDFTLKISRVEAEDVGVYYCAQGTSVPFTFGQGTKLEIK
4 | 0 | H183/L072 VL Q90W (antibody, name in Kabat numbering, V domains shown, Dual-Ig) VH: QVQLVESGGGLVQPGRSLRLSCAASGFTFSNAWMHWVRQAPGKGLEWVAQIKDKGNAYAAYYAPSVKGRFTISRDDSKNSIYLQMNSLKTEDTAVYYCHYVHYASASTVLPAFGVDAWGQGTTVTVSS VL: DIVMTQSPLSLPVTPGEPASISCQASQELVHMNRNTYLHWYQQKPGQAPRLLIYKVSNRFPGVPDRFSGSGSGTDFTLKISRVEAEDVGVYYCAWGTSVPFTFGQGTKLEIK
5 | 0.7 | H183/L072 VL R29F (antibody, name in Kabat numbering, V domains shown, Dual-Ig) VH: QVQLVESGGGLVQPGRSLRLSCAASGFTFSNAWMHWVRQAPGKGLEWVAQIKDKGNAYAAYYAPSVKGRFTISRDDSKNSIYLQMNSLKTEDTAVYYCHYVHYASASTVLPAFGVDAWGQGTTVTVSS VL: DIVMTQSPLSLPVTPGEPASISCQASQELVHMNFNTYLHWYQQKPGQAPRLLIYKVSNRFPGVPDRFSGSGSGTDFTLKISRVEAEDVGVYYCAQGTSVPFTFGQGTKLEIK
6 | 0.9 | H183/L072 VL R29N (antibody, name in Kabat numbering, V domains shown, Dual-Ig) VH: QVQLVESGGGLVQPGRSLRLSCAASGFTFSNAWMHWVRQAPGKGLEWVAQIKDKGNAYAAYYAPSVKGRFTISRDDSKNSIYLQMNSLKTEDTAVYYCHYVHYASASTVLPAFGVDAWGQGTTVTVSS VL: DIVMTQSPLSLPVTPGEPASISCQASQELVHMNNNTYLHWYQQKPGQAPRLLIYKVSNRFPGVPDRFSGSGSGTDFTLKISRVEAEDVGVYYCAQGTSVPFTFGQGTKLEIK
7 | 0.2 | H183/L072 VL R29P (antibody, name in Kabat numbering, V domains shown, Dual-Ig) VH: QVQLVESGGGLVQPGRSLRLSCAASGFTFSNAWMHWVRQAPGKGLEWVAQIKDKGNAYAAYYAPSVKGRFTISRDDSKNSIYLQMNSLKTEDTAVYYCHYVHYASASTVLPAFGVDAWGQGTTVTVSS VL: DIVMTQSPLSLPVTPGEPASISCQASQELVHMNPNTYLHWYQQKPGQAPRLLIYKVSNRFPGVPDRFSGSGSGTDFTLKISRVEAEDVGVYYCAQGTSVPFTFGQGTKLEIK

The next lines start with the binder.

Row | Binder | fold change of affinity [fold]
8 | H183/L072 VL R29M (antibody, name in Kabat numbering, V domains shown, Dual-Ig) VH: QVQLVESGGGLVQPGRSLRLSCAASGFTFSNAWMHWVRQAPGKGLEWVAQIKDKGNAYAAYYAPSVKGRFTISRDDSKNSIYLQMNSLKTEDTAVYYCHYVHYASASTVLPAFGVDAWGQGTTVTVSS VL: DIVMTQSPLSLPVTPGEPASISCQASQELVHMNMNTYLHWYQQKPGQAPRLLIYKVSNRFPGVPDRFSGSGSGTDFTLKISRVEAEDVGVYYCAQGTSVPFTFGQGTKLEIK | 0.9
9 | H183/L072 VL Q90T (antibody, name in Kabat numbering, V domains shown, Dual-Ig) VH: QVQLVESGGGLVQPGRSLRLSCAASGFTFSNAWMHWVRQAPGKGLEWVAQIKDKGNAYAAYYAPSVKGRFTISRDDSKNSIYLQMNSLKTEDTAVYYCHYVHYASASTVLPAFGVDAWGQGTTVTVSS VL: DIVMTQSPLSLPVTPGEPASISCQASQELVHMNRNTYLHWYQQKPGQAPRLLIYKVSNRFPGVPDRFSGSGSGTDFTLKISRVEAEDVGVYYCATGTSVPFTFGQGTKLEIK | 0
10 | H183/L072 VL R29G (antibody, name in Kabat numbering, V domains shown, Dual-Ig) VH: QVQLVESGGGLVQPGRSLRLSCAASGFTFSNAWMHWVRQAPGKGLEWVAQIKDKGNAYAAYYAPSVKGRFTISRDDSKNSIYLQMNSLKTEDTAVYYCHYVHYASASTVLPAFGVDAWGQGTTVTVSS VL: DIVMTQSPLSLPVTPGEPASISCQASQELVHMNGNTYLHWYQQKPGQAPRLLIYKVSNRFPGVPDRFSGSGSGTDFTLKISRVEAEDVGVYYCAQGTSVPFTFGQGTKLEIK | 1.1
11 | H183/L072 VL R29H (antibody, name in Kabat numbering, V domains shown, Dual-Ig) VH: QVQLVESGGGLVQPGRSLRLSCAASGFTFSNAWMHWVRQAPGKGLEWVAQIKDKGNAYAAYYAPSVKGRFTISRDDSKNSIYLQMNSLKTEDTAVYYCHYVHYASASTVLPAFGVDAWGQGTTVTVSS VL: DIVMTQSPLSLPVTPGEPASISCQASQELVHMNHNTYLHWYQQKPGQAPRLLIYKVSNRFPGVPDRFSGSGSGTDFTLKISRVEAEDVGVYYCAQGTSVPFTFGQGTKLEIK | 0.8
12 | H183/L072 VL R29W (antibody, name in Kabat numbering, V domains shown, Dual-Ig) VH: QVQLVESGGGLVQPGRSLRLSCAASGFTFSNAWMHWVRQAPGKGLEWVAQIKDKGNAYAAYYAPSVKGRFTISRDDSKNSIYLQMNSLKTEDTAVYYCHYVHYASASTVLPAFGVDAWGQGTTVTVSS VL: DIVMTQSPLSLPVTPGEPASISCQASQELVHMNWNTYLHWYQQKPGQAPRLLIYKVSNRFPGVPDRFSGSGSGTDFTLKISRVEAEDVGVYYCAQGTSVPFTFGQGTKLEIK | 0.6
13 | H183/L072 VL R29K (antibody, name in Kabat numbering, V domains shown, Dual-Ig) VH: QVQLVESGGGLVQPGRSLRLSCAASGFTFSNAWMHWVRQAPGKGLEWVAQIKDKGNAYAAYYAPSVKGRFTISRDDSKNSIYLQMNSLKTEDTAVYYCHYVHYASASTVLPAFGVDAWGQGTTVTVSS VL: DIVMTQSPLSLPVTPGEPASISCQASQELVHMNKNTYLHWYQQKPGQAPRLLIYKVSNRFPGVPDRFSGSGSGTDFTLKISRVEAEDVGVYYCAQGTSVPFTFGQGTKLEIK | 1.1
14 | H183/L072 VL R29V (antibody, name in Kabat numbering, V domains shown, Dual-Ig) VH: QVQLVESGGGLVQPGRSLRLSCAASGFTFSNAWMHWVRQAPGKGLEWVAQIKDKGNAYAAYYAPSVKGRFTISRDDSKNSIYLQMNSLKTEDTAVYYCHYVHYASASTVLPAFGVDAWGQGTTVTVSS VL: DIVMTQSPLSLPVTPGEPASISCQASQELVHMNVNTYLHWYQQKPGQAPRLLIYKVSNRFPGVPDRFSGSGSGTDFTLKISRVEAEDVGVYYCAQGTSVPFTFGQGTKLEIK | 0.3
15 | H183/L072 VL R29Q (antibody, name in Kabat numbering, V domains shown, Dual-Ig) VH: QVQLVESGGGLVQPGRSLRLSCAASGFTFSNAWMHWVRQAPGKGLEWVAQIKDKGNAYAAYYAPSVKGRFTISRDDSKNSIYLQMNSLKTEDTAVYYCHYVHYASASTVLPAFGVDAWGQGTTVTVSS VL: DIVMTQSPLSLPVTPGEPASISCQASQELVHMNQNTYLHWYQQKPGQAPRLLIYKVSNRFPGVPDRFSGSGSGTDFTLKISRVEAEDVGVYYCAQGTSVPFTFGQGTKLEIK | 0.9
16 | H183/L072 VL Q90V (antibody, name in Kabat numbering, V domains shown, Dual-Ig) VH: QVQLVESGGGLVQPGRSLRLSCAASGFTFSNAWMHWVRQAPGKGLEWVAQIKDKGNAYAAYYAPSVKGRFTISRDDSKNSIYLQMNSLKTEDTAVYYCHYVHYASASTVLPAFGVDAWGQGTTVTVSS VL: DIVMTQSPLSLPVTPGEPASISCQASQELVHMNRNTYLHWYQQKPGQAPRLLIYKVSNRFPGVPDRFSGSGSGTDFTLKISRVEAEDVGVYYCAVGTSVPFTFGQGTKLEIK | 0
17 | H183/L072 VL R29A (antibody, name in Kabat numbering, V domains shown, Dual-Ig) VH: QVQLVESGGGLVQPGRSLRLSCAASGFTFSNAWMHWVRQAPGKGLEWVAQIKDKGNAYAAYYAPSVKGRFTISRDDSKNSIYLQMNSLKTEDTAVYYCHYVHYASASTVLPAFGVDAWGQGTTVTVSS VL: DIVMTQSPLSLPVTPGEPASISCQASQELVHMNANTYLHWYQQKPGQAPRLLIYKVSNRFPGVPDRFSGSGSGTDFTLKISRVEAEDVGVYYCAQGTSVPFTFGQGTKLEIK | 0.8
18 | H183/L072 VL R29D (antibody, name in Kabat numbering, V domains shown, Dual-Ig) VH: QVQLVESGGGLVQPGRSLRLSCAASGFTFSNAWMHWVRQAPGKGLEWVAQIKDKGNAYAAYYAPSVKGRFTISRDDSKNSIYLQMNSLKTEDTAVYYCHYVHYASASTVLPAFGVDAWGQGTTVTVSS VL: DIVMTQSPLSLPVTPGEPASISCQASQELVHMNDNTYLHWYQQKPGQAPRLLIYKVSNRFPGVPDRFSGSGSGTDFTLKISRVEAEDVGVYYCAQGTSVPFTFGQGTKLEIK | 0.3
19 | H183/L072 VL R29I (antibody, name in Kabat numbering, V domains shown, Dual-Ig) VH: QVQLVESGGGLVQPGRSLRLSCAASGFTFSNAWMHWVRQAPGKGLEWVAQIKDKGNAYAAYYAPSVKGRFTISRDDSKNSIYLQMNSLKTEDTAVYYCHYVHYASASTVLPAFGVDAWGQGTTVTVSS VL: DIVMTQSPLSLPVTPGEPASISCQASQELVHMNINTYLHWYQQKPGQAPRLLIYKVSNRFPGVPDRFSGSGSGTDFTLKISRVEAEDVGVYYCAQGTSVPFTFGQGTKLEIK | 0.3
20 | H183/L072 VL R29T (antibody, name in Kabat numbering, V domains shown, Dual-Ig) VH: QVQLVESGGGLVQPGRSLRLSCAASGFTFSNAWMHWVRQAPGKGLEWVAQIKDKGNAYAAYYAPSVKGRFTISRDDSKNSIYLQMNSLKTEDTAVYYCHYVHYASASTVLPAFGVDAWGQGTTVTVSS VL: DIVMTQSPLSLPVTPGEPASISCQASQELVHMNTNTYLHWYQQKPGQAPRLLIYKVSNRFPGVPDRFSGSGSGTDFTLKISRVEAEDVGVYYCAQGTSVPFTFGQGTKLEIK | 0.8
21 | H183/L072 VL R29L (antibody, name in Kabat numbering, V domains shown, Dual-Ig) VH: QVQLVESGGGLVQPGRSLRLSCAASGFTFSNAWMHWVRQAPGKGLEWVAQIKDKGNAYAAYYAPSVKGRFTISRDDSKNSIYLQMNSLKTEDTAVYYCHYVHYASASTVLPAFGVDAWGQGTTVTVSS VL: DIVMTQSPLSLPVTPGEPASISCQASQELVHMNLNTYLHWYQQKPGQAPRLLIYKVSNRFPGVPDRFSGSGSGTDFTLKISRVEAEDVGVYYCAQGTSVPFTFGQGTKLEIK | 0.9
